Results reported in patent publication US20230136228A1 (LAMKAP BIO ALPHA, published 2023).

T1: human CEACAM6 (human, UniProt P40199 35-320)
T1 construct: whole, on cells; also called CD66c
T1 sequence (looked up): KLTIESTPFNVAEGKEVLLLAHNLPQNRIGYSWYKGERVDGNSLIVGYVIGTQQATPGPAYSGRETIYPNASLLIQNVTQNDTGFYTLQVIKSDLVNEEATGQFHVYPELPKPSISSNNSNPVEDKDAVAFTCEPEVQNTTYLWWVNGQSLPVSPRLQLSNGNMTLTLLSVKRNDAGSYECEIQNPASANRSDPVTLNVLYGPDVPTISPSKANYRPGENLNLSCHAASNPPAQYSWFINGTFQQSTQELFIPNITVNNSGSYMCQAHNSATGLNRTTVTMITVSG

T2: human CEACAM3 (human, UniProt P40198 35-252)
T2 construct: whole, on cells
T2 sequence (looked up): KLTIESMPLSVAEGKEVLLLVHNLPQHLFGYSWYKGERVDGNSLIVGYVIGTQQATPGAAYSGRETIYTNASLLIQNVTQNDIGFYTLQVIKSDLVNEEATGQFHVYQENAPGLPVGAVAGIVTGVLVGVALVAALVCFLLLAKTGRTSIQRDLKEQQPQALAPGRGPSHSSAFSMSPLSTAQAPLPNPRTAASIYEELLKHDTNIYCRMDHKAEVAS

T3: human CEACAM4 (human, UniProt O75871 36-244)
T3 construct: whole, on cells
T3 sequence (looked up): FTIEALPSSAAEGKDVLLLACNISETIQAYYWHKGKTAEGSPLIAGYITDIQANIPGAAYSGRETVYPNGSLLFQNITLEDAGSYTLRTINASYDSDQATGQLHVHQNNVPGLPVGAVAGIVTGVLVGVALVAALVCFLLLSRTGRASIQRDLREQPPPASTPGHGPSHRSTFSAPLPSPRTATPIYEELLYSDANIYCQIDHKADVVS

T4: human CEACAM1 (human, UniProt P13688 35-526)
T4 construct: whole, on cells
T4 sequence (looked up): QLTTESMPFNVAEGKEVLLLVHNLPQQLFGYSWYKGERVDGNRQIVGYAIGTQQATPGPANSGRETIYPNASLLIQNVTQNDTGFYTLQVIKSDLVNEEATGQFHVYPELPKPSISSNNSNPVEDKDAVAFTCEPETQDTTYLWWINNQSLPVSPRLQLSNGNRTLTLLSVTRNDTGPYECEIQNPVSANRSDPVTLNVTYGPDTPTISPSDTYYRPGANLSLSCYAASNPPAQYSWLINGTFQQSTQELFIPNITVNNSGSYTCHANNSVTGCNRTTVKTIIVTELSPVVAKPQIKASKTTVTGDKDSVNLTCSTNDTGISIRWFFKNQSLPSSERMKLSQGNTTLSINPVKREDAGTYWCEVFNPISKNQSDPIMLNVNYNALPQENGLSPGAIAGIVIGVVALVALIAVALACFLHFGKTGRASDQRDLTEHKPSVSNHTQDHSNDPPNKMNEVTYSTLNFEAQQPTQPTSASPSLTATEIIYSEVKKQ

T5: human CEACAM5 (carcinoembryonic antigen, CEA), cell surface (human, UniProt P06731 35-685)
T5 sequence (looked up): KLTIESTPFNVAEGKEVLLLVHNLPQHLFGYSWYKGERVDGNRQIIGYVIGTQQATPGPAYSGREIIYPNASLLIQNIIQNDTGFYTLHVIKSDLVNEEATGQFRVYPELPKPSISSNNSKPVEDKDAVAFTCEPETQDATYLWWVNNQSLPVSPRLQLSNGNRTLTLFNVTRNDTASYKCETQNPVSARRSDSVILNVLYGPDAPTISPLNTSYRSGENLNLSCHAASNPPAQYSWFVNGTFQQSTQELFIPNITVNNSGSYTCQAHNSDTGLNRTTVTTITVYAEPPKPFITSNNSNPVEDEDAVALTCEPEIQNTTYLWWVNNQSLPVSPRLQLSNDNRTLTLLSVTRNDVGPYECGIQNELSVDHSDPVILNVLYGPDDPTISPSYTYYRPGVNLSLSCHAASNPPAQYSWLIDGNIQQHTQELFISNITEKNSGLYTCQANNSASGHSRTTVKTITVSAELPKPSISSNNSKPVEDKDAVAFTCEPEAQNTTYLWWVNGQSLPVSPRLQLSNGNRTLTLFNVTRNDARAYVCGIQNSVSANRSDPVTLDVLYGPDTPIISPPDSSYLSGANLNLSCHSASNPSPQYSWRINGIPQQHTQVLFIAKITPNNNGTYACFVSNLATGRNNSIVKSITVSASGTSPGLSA


Experiments:
human CEACAM6 = molecular target: T1, human CEACAM6; experiment: flow cytometry, transfected PEAK cells
Source text: (§1) Vectors encoding the full-length version of human CEACAM 1, 3, 4, 5, 6, 7, 8, 18, 19, 20 and […] are used to express these proteins at the surface of PEAK and/or CHO cells as described in Example 1. Similarly, vectors encoding the full-length version of cyno CEACAM 5 and 6 are also used to express these proteins at the surface of PEAK and/or CHO cells. Non-transfected PEAK and/or CHO cells are used as negative control. Cells are harvested, counted, checked for viability and resuspended at 3×10⁶ cells/ml in FACS buffer (PBS 2% BSA, 0.1% NaN₃). 100 μl of the cell suspension are distributed in V-bottom 96-well plates (3×10⁵ cells/well). The supernatant is removed by centrifugation 3 minutes at 4° C., 1300 rpm and the cells incubated for 15 minutes at 4° C. with increasing concentrations of the antibody according to the invention. The antibodies carrying the anti-CEACAM5 arms to test are diluted in FACS buffer and the concentration range is 30 pM-500 nM. Cells are washed twice with cold FACS buffer and re-incubated for further 15 minutes at 4° C. with a compatible anti-human IgG secondary antibody. Cells are washed twice with cold FACS buffer and resuspended in 300 μl FACS buffer with 1:1500-diluted TOPRO-3 (Invitrogen). Fluorescence is measured using a FACSCalibur™ (BD Biosciences) or a Cytoflex Platform (Beckman Coulter). Dose-response binding curves are fitted using GraphPad Prism8 software. In the same manner, CEACAM1, CEACAM6 and other CEACAMs can be characterized.
(§2) For the bispecific antibodies AB17L3-1/N, AB71L3-1/N, AB72L3-1/N, AB73L3-1/N the MFI measured for binding to CEACAM5 transfected cells was found between 29000 and 41000 (Table 2). In contrast MFI found by using PEAK cells transfected with CEACAM 1,3,4,6,8 were found below 1000 with the only exception of a strong signal for AB72L3-1/N on CEACAM8 transfected cells. When MFI values obtained on transfected cells expressing any given CEACAM are divided by the values obtained on WT PEAK cells, “factors to PEAK WT” can be calculated (Table 3).

human CEACAM3 = molecular target: T2, human CEACAM3; experiment: flow cytometry, transfected PEAK cells
Source text: as §1, §2

human CEACAM4 = molecular target: T3, human CEACAM4; experiment: flow cytometry, transfected PEAK cells
Source text: as §1, §2

human CEACAM1 = molecular target: T4, human CEACAM1; experiment: flow cytometry, transfected PEAK cells
Source text: as §1, §2

[1] = molecular target: T5, human CEACAM5 (carcinoembryonic …); experiment: cell-based or functional assay

| Binder | binding result (human CEACAM6) | binding result (human CEACAM3) | binding result (human CEACAM4) | binding result (human CEACAM1) | Killing EC50, HPAFII cells (TDCC, LDH release) [1] [nM] | Killing EC50, LS174T cells (TDCC, LDH release) [1] [nM] | Killing EC50, MKN45 cells (TDCC, LDH release) [1] [nM] |
| --- | --- | --- | --- | --- | --- | --- | --- |
| AB1L3-1/N (bispecific antibody, human IgG1, kappa, lambda, L234A L235A, Kappa-lambda body: common heavy chain (hIgG1 L234A+L235A+P329A), kappa CEA light chain AB1, lambda CD3 light chain L3-1 (1A4); also called parental KL bispecific antibody) heavy: EVQLVESGGGLVQPGGSLKLSCAASGFTFNTYAMNWVRQAPGKGLEWVGRIRSKYNNYATYYADSVKDRFTISRDDSKNTAYLQMNSLKTEDTAVYYCVRHGNFGNSYVSWFAYWGQGTLVTVSSASTKGPSVFPLAPSSKSTSGGTAALGCLVKDYFPEPVTVSWNSGALTSGVHTFPAVLQSSGLYSLSSVVTVPSSSLGTQTYICNVNHKPSNTKVDKRVEPKSCDKTHTCPPCPAPEAAGGPSVFLFPPKPKDTLMISRTPEVTCVVVDVSHEDPEVKFNWYVDGVEVHNAKTKPREEQYNSTYRVVSVLTVLHQDWLNGKEYKCKVSNKALAAPIEKTISKAKGQPREPQVYTLPPSREEMTKNQVSLTCLVKGFYPSDIAVEWESNGQPENNYKTTPPVLDSDGSFFLYSKLTVDKSRWQQGNVFSCSVMHEALHNHYTQKSLSLSPG light 1: EIVLTQSPATLSLSPGERATLSCRASQSVNSNLNWYQQKPGQAPRLLIYHGSNRATGIPARFSGSGSGTDFTLTISSLEPEDFAVYYCQQFDLRHEHNTFGQGTKVEIKRTVAAPSVFIFPPSDEQLKSGTASVVCLLNNFYPREAKVQWKVDNALQSGNSQESVTEQDSKDSTYSLSSTLTLSKADYEKHKVYACEVTHQGLSSPVTKSFNRGEC light 2: QTVVTQEPSLTVSPGGTVTLTCRSSTGAVTTSNYANWFQQKPGQAPRGLIGGTNKRAPGTPARFSGSLLGGKAALTLSGAQPEDEAEYYCALWYKQRWVFGGGTKLTVLGQPKAAPSVTLFPPSSEELQANKATLVCLISDFYPGAVTVAWKADSSPVKAGVETTTPSKQSNNKYAASSYLSLTPEQWKSHRSYSCQVTHEGSTVEKTVAPTECS | no binding (tested: 10 mcg/ml) | no binding (tested: 10 mcg/ml) | no binding (tested: 10 mcg/ml) | no binding (tested: 10 mcg/ml) | – | – | – |
| AB73L3-1/N (bispecific antibody, human IgG1, kappa, lambda, L234A L235A, Kappa-lambda body, lead optimization wave 2) heavy: EVQLVESGGGLVQPGGSLKLSCAASGFTFNTYAMNWVRQAPGKGLEWVGRIRSKYNNYATYYADSVKDRFTISRDDSKNTAYLQMNSLKTEDTAVYYCVRHGNFGNSYVSWFAYWGQGTLVTVSSASTKGPSVFPLAPSSKSTSGGTAALGCLVKDYFPEPVTVSWNSGALTSGVHTFPAVLQSSGLYSLSSVVTVPSSSLGTQTYICNVNHKPSNTKVDKRVEPKSCDKTHTCPPCPAPEAAGGPSVFLFPPKPKDTLMISRTPEVTCVVVDVSHEDPEVKFNWYVDGVEVHNAKTKPREEQYNSTYRVVSVLTVLHQDWLNGKEYKCKVSNKALAAPIEKTISKAKGQPREPQVYTLPPSREEMTKNQVSLTCLVKGFYPSDIAVEWESNGQPENNYKTTPPVLDSDGSFFLYSKLTVDKSRWQQGNVFSCSVMHEALHNHYTQKSLSLSPG light 1: EIVLTQSPATLSLSPGERATLSCRASQSVNSNLNWYQQKPGQAPRLLIYHSNNRPHGIPARFSGSGSGTDFTLTISSLEPEDFAVYYCQQFDYFREYNTFGQGTKVEIKRTVAAPSVFIFPPSDEQLKSGTASVVCLLNNFYPREAKVQWKVDNALQSGNSQESVTEQDSKDSTYSLSSTLTLSKADYEKHKVYACEVTHQGLSSPVTKSFNRGEC light 2: QTVVTQEPSLTVSPGGTVTLTCRSSTGAVTTSNYANWFQQKPGQAPRGLIGGTNKRAPGTPARFSGSLLGGKAALTLSGAQPEDEAEYYCALWYKQRWVFGGGTKLTVLGQPKAAPSVTLFPPSSEELQANKATLVCLISDFYPGAVTVAWKADSSPVKAGVETTTPSKQSNNKYAASSYLSLTPEQWKSHRSYSCQVTHEGSTVEKTVAPTECS | – | – | – | – | 0.13 | 0.06 | 0.03 |
| AB71L3-1/N (bispecific antibody, human IgG1, kappa, lambda, L234A L235A, Kappa-lambda body, lead optimization wave 2) heavy: EVQLVESGGGLVQPGGSLKLSCAASGFTFNTYAMNWVRQAPGKGLEWVGRIRSKYNNYATYYADSVKDRFTISRDDSKNTAYLQMNSLKTEDTAVYYCVRHGNFGNSYVSWFAYWGQGTLVTVSSASTKGPSVFPLAPSSKSTSGGTAALGCLVKDYFPEPVTVSWNSGALTSGVHTFPAVLQSSGLYSLSSVVTVPSSSLGTQTYICNVNHKPSNTKVDKRVEPKSCDKTHTCPPCPAPEAAGGPSVFLFPPKPKDTLMISRTPEVTCVVVDVSHEDPEVKFNWYVDGVEVHNAKTKPREEQYNSTYRVVSVLTVLHQDWLNGKEYKCKVSNKALAAPIEKTISKAKGQPREPQVYTLPPSREEMTKNQVSLTCLVKGFYPSDIAVEWESNGQPENNYKTTPPVLDSDGSFFLYSKLTVDKSRWQQGNVFSCSVMHEALHNHYTQKSLSLSPG light 1: EIVLTQSPATLSLSPGERATLSCRASQSVNSNLNWYQQKPGQAPRLLIYHSSNRPHGIPARFSGSGSGTDFTLTISSLEPEDFAVYYCQQFDYFKEHNTFGQGTKVEIKRTVAAPSVFIFPPSDEQLKSGTASVVCLLNNFYPREAKVQWKVDNALQSGNSQESVTEQDSKDSTYSLSSTLTLSKADYEKHKVYACEVTHQGLSSPVTKSFNRGEC light 2: QTVVTQEPSLTVSPGGTVTLTCRSSTGAVTTSNYANWFQQKPGQAPRGLIGGTNKRAPGTPARFSGSLLGGKAALTLSGAQPEDEAEYYCALWYKQRWVFGGGTKLTVLGQPKAAPSVTLFPPSSEELQANKATLVCLISDFYPGAVTVAWKADSSPVKAGVETTTPSKQSNNKYAASSYLSLTPEQWKSHRSYSCQVTHEGSTVEKTVAPTECS | – | – | – | – | 0.16 | 0.16 | 0.09 |
